# Assay results taken from patent US20190015518A1, “DRUG DELIVERY COMPOSITIONS AND METHODS” (priority 2016, published 2019).
# Assays:
# Plasma Pt quantitation = conditions: s.c. 10 mg/kg, between 24 and 72 hours
# Description: Whole blood was centrifuged (1500×g, 5 min., 4° C., no brake). Top layer (plasma) and middle layer (white blood cells) were transferred to new tubes. Plasma was frozen (−20° C.) until analysis. […] The white blood cell pellet was washed twice with cold PBS and re-suspended in 9 mL of white blood cell buffer (10-mM Tris, pH 7.4, 2.3% NaCl, 2-mM EDTA), and 900 μL of 1.1-M NH4HCO3, 900 μL of 10% SDS, and 75 μL of 2% Proteinase K were added and incubated at 42° C. overnight. Then, 3.3 mL of 5-M NaCl was added, samples shaken vigorously, and centrifuged twice (3200×g, 5 min, 4° C.), each time discarding the pellet. DNA was pelleted with 20 mL of ice-cold 100% ethanol and centrifuged (3200×g, 5 min, 4° C.); the DNA pellet was washed twice with 75% ethanol, re-suspended in water, and quantitated. DNA was digested in 1% HNO3 (800 μL total volume) overnight at 70° C. DNA samples were diluted 1:10 in 1% HNO3 and plasma samples were diluted 1:10,000 in 1% HNO3. Diluted samples were analyzed for Pt content using ICP-MS with a calibration curve from 1-1000 ppt.
# [1] = Clinical chemistry of a healthy dog given 1.5 mg/kg on day 1 and 2.0 mg/kg on day 70, sub-mucosa; format: in vivo
# Description: Before each dose, the dog was examined by clinical chemistry, hematology, and urinalysis. Additional examinations of clinical chemistry and hematology were performed on days 7, 14, and 42 after the first dose. Additional tests of urinalysis were performed on days 7 and 14 after the first dose. The potential drug-induced toxicities were monitored for 56 days after the second dose. Specifically, clinical chemistry and urinalysis were performed on days 7, 14, 21, and 56, and hematology was performed on days 7, 14, and 56 after the second dose to evaluate the tolerability and toxicity of the formulation.
# Clinical chemistry examinations were performed at pre- and post-dose for both injections. The injections were given via the sub-mucosa in the mouth.
# [2] = tested on: 4T1.2-neu (murine breast cancer cells); experiment: Anti-proliferative activity (Resazurin Blue, 72 hours); format: cell-based; conditions: mean ± S.E.M., cisplatin basis
# Description: MDA-1986 (human head and neck squamous cell carcinoma), 4T1.2-neu (murine breast cancer cells), and A2058 (human melanoma) cells were maintained in Dulbecco's Modified Eagle Medium (DMEM, Corning, Manassas, Va.) with 4.5 g/L glucose, 4.5 g/L L-glutamine, and 10% fetal bovine serum in a humidified incubator at 37° C. and 5% CO2. Cells were seeded into 96-well plates (3,000 cells/well in 90 μL media) and allowed to attach overnight. […] Resazurin Blue (Acros Organics, Geel, Belgium) in PBS was added to each well (5-μM final concentration; 10-μL addition) and incubated at 37° C. for 4 hours. Fluorescence (λex 550 nm, λem 605 nm) was quantified with a SpectraMax Gemini XS plate-reader (Molecular Devices, Sunnyvale, Calif.). The relative growth of cells incubated with each compound concentration was normalized to vehicle-treated controls (100% proliferation). Data from at least three separate experiments performed in duplicate was analyzed using non-linear regression (GraphPad Prism 5.0) to generate IC50 values.
substance,measurement,setting,value
HA-cis-[Pt(NH3)2(N^α-Acetyl-L-Lysine)] [75HA-Lys-Pt],plasma Pt plateau concentration,Plasma Pt quantitation,4-5 μg Pt/mL plasma
same,ALP elevation,"[1]; 2 mg/kg, 7-days post-dose",0.7 fold
same,ALT elevation,"[1]; 2 mg/kg, 7-days post-dose",4.6 fold
same,AST elevation,"[1]; 2 mg/kg, 7-days post-dose",8.7 fold
same,"ALP, higher than the pre-dose level","[1]; 2 mg/kg, 8-weeks post-dose",0.27 fold
same,Alanine aminotransferase,"[1]; 2 mg/kg, 7 days after",330 U/L
same,Albumin,"[1]; 2 mg/kg, 7 days after",2.5 g/dL
same,Alkaline phosphatase,"[1]; 2 mg/kg, 7 days after",237 U/L
same,Aspartate aminotransferase,"[1]; 2 mg/kg, 7 days after",309 U/L
same,Calcium,"[1]; 2 mg/kg, 7 days after",9.3 mg/dL
same,Cholesterol,"[1]; 2 mg/kg, 7 days after",81 mg/dL
same,Creatine kinase,"[1]; 2 mg/kg, 7 days after",105 U/L
same,Creatinine,"[1]; 2 mg/kg, 7 days after",0.25 mg/dL
same,Gamma glutamyltransferase,"[1]; 2 mg/kg, 7 days after",0 U/L
same,Globulin,"[1]; 2 mg/kg, 7 days after",2.9 g/dL
same,Glucose,"[1]; 2 mg/kg, 7 days after",83 mg/dL
same,Inorganic Phosphorus,"[1]; 2 mg/kg, 7 days after",2.8 mg/dL
same,Total Bilirubin,"[1]; 2 mg/kg, 7 days after",0.3 mg/dL
same,Total Protein,"[1]; 2 mg/kg, 7 days after",5.4 g/dL
same,Triglyceride,"[1]; 2 mg/kg, 7 days after",32 mg/dL
same,Urea Nitrogen,"[1]; 2 mg/kg, 7 days after",11 mg/dL
same,Alanine aminotransferase,"[1]; 2 mg/kg, 14 days after",223 U/L
same,Albumin,"[1]; 2 mg/kg, 14 days after",2.4 g/dL
same,Alkaline phosphatase,"[1]; 2 mg/kg, 14 days after",249 U/L
same,Calcium,"[1]; 2 mg/kg, 14 days after",8.6 mg/dL
same,Cholesterol,"[1]; 2 mg/kg, 14 days after",75 mg/dL
same,Creatine kinase,"[1]; 2 mg/kg, 14 days after",143 U/L
same,Creatinine,"[1]; 2 mg/kg, 14 days after",0.3 mg/dL
same,Gamma glutamyltransferase,"[1]; 2 mg/kg, 14 days after",0 U/L
same,Glucose,"[1]; 2 mg/kg, 14 days after",76 mg/dL
same,Inorganic Phosphorus,"[1]; 2 mg/kg, 14 days after",3.4 mg/dL
same,Total Bilirubin,"[1]; 2 mg/kg, 14 days after",0.1 mg/dL
same,Total Protein,"[1]; 2 mg/kg, 14 days after",5.5 g/dL
same,Triglyceride,"[1]; 2 mg/kg, 14 days after",43 mg/dL
same,Urea Nitrogen,"[1]; 2 mg/kg, 14 days after",14 mg/dL
same,Alanine aminotransferase,"[1]; 2 mg/kg, 21 days after",198 U/L
same,Albumin,"[1]; 2 mg/kg, 21 days after",2.7 g/dL
same,Alkaline phosphatase,"[1]; 2 mg/kg, 21 days after",219 U/L
same,Aspartate aminotransferase,"[1]; 2 mg/kg, 21 days after",129 U/L
same,Calcium,"[1]; 2 mg/kg, 21 days after",9.3 mg/dL
same,Cholesterol,"[1]; 2 mg/kg, 21 days after",70 mg/dL
same,Creatinine,"[1]; 2 mg/kg, 21 days after",0.33 mg/dL
same,Gamma glutamyltransferase,"[1]; 2 mg/kg, 21 days after",0 U/L
same,Glucose,"[1]; 2 mg/kg, 21 days after",64 mg/dL
same,Inorganic Phosphorus,"[1]; 2 mg/kg, 21 days after",3.9 mg/dL
same,Total Bilirubin,"[1]; 2 mg/kg, 21 days after",0.2 mg/dL
same,Total Protein,"[1]; 2 mg/kg, 21 days after",5.8 g/dL
same,Triglyceride,"[1]; 2 mg/kg, 21 days after",39 mg/dL
same,Urea Nitrogen,"[1]; 2 mg/kg, 21 days after",14 mg/dL
same,Alanine aminotransferase,"[1]; 2 mg/kg, 56 days after",220 U/L
same,Albumin,"[1]; 2 mg/kg, 56 days after",3.0 g/dL
same,Alkaline phosphatase,"[1]; 2 mg/kg, 56 days after",173 U/L
same,Aspartate aminotransferase,"[1]; 2 mg/kg, 56 days after",138 U/L
same,Calcium,"[1]; 2 mg/kg, 56 days after",9.7 mg/dL
same,Cholesterol,"[1]; 2 mg/kg, 56 days after",86 mg/dL
same,Creatine kinase,"[1]; 2 mg/kg, 56 days after",117 U/L
same,Creatinine,"[1]; 2 mg/kg, 56 days after",0.3 mg/dL
same,Gamma glutamyltransferase,"[1]; 2 mg/kg, 56 days after",0 U/L
same,Globulin,"[1]; 2 mg/kg, 56 days after",3.3 g/dL
same,Glucose,"[1]; 2 mg/kg, 56 days after",73 mg/dL
same,Inorganic Phosphorus,"[1]; 2 mg/kg, 56 days after",2.5 mg/dL
same,Total Bilirubin,"[1]; 2 mg/kg, 56 days after",0.4 mg/dL
same,Total Protein,"[1]; 2 mg/kg, 56 days after",6.3 g/dL
same,Triglyceride,"[1]; 2 mg/kg, 56 days after",42 mg/dL
same,Urea Nitrogen,"[1]; 2 mg/kg, 56 days after",14 mg/dL
same,Alanine aminotransferase,"[1]; […], 7 days after",36 U/L
same,Albumin,"[1]; […], 7 days after",2.4 g/dL
same,Alkaline phosphatase,"[1]; […], 7 days after",132 U/L
same,Aspartate aminotransferase,"[1]; […], 7 days after",67 U/L
same,Calcium,"[1]; […], 7 days after",8.8 mg/dL
same,Cholesterol,"[1]; […], 7 days after",89 mg/dL
same,Creatine kinase,"[1]; […], 7 days after",93 U/L
same,Creatinine,"[1]; […], 7 days after",0.33 mg/dL
same,Globulin,"[1]; […], 7 days after",2.6 g/dL
same,Glucose,"[1]; […], 7 days after",70 mg/dL
same,Inorganic Phosphorus,"[1]; […], 7 days after",3.3 mg/dL
same,Total Bilirubin,"[1]; […], 7 days after",0.1 mg/dL
same,Total Protein,"[1]; […], 7 days after",5.0 g/dL
same,Triglyceride,"[1]; […], 7 days after",34 mg/dL
same,Urea Nitrogen,"[1]; […], 7 days after",13 mg/dL
same,Alanine aminotransferase,"[1]; […], 14 days",57 U/L
same,Albumin,"[1]; […], 14 days",2.4 g/dL
same,Alkaline phosphatase,"[1]; […], 14 days",116 U/L
same,Aspartate aminotransferase,"[1]; […], 14 days",89 U/L
same,Calcium,"[1]; […], 14 days",9.4 mg/dL
same,Cholesterol,"[1]; […], 14 days",97 mg/dL
same,Creatine kinase,"[1]; […], 14 days",207 U/L
same,Creatinine,"[1]; […], 14 days",0.35 mg/dL
same,Globulin,"[1]; […], 14 days",2.8 g/dL
same,Glucose,"[1]; […], 14 days",80 mg/dL
same,Inorganic Phosphorus,"[1]; […], 14 days",5.5 mg/dL
same,Total Bilirubin,"[1]; […], 14 days",0.0 mg/dL
same,Total Protein,"[1]; […], 14 days",5.2 g/dL
same,Triglyceride,"[1]; […], 14 days",38 mg/dL
same,Urea Nitrogen,"[1]; […], 14 days",19 mg/dL
same,Alanine aminotransferase,"[1]; […], 42 days",74 U/L
same,Albumin,"[1]; […], 42 days",3.0 g/dL
same,Alkaline phosphatase,"[1]; […], 42 days",125 U/L
same,Aspartate aminotransferase,"[1]; […], 42 days",39 U/L
same,Creatine kinase,"[1]; […], 42 days",159 U/L
same,Globulin,"[1]; […], 42 days",2.5 g/dL
same,Total Bilirubin,"[1]; […], 42 days",0.0 mg/dL
same,Total Protein,"[1]; […], 42 days",5.5 g/dL
same,IC50,[2],80.1 ± 12.7 µM
